The target in this data set is T1, Pot1pC (C-terminal domain of the Pot1 DNA-binding domain) (Schizosaccharomyces pombe, UniProt O13988 198-339, V199D).
T1 sequence: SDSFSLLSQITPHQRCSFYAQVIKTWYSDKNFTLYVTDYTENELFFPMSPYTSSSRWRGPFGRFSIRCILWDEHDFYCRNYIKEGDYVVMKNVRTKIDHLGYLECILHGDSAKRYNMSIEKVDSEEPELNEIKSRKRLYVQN
Kind of data set: X-ray crystallography.

GGTTACGGT (mixed, ribose at 1 (rG1), rest DNA) [1R]: the binding result is “binds”.

For the origin of these results see article PMC5987771.
